The target of assay [1] is ATTO 488-labelled β1-CT (488–β1-CT) (UniProt P05556). The assay can be described thus: MST; ATTO 488-labelled β-CT peptide (50–200 nM) held constant, one unlabelled protein titrated; 20 mM Tris pH 7.5, 200 mM NaCl, 1 mM TCEP, 0.05% Tween-20; apparent affinities (near-saturation only).
Assay [2] addresses integrin β1A cytoplasmic tail (β1-CT), recombinant (UniProt P05556). Put plainly: NMR titration; isotope-labelled β1-CT observed; TLN1-F3 and ΔKIND2 (wild type or K402E / Y13A) added together, ternary complex; 20 mM Tris, 200 mM NaCl, 1 mM DTT, pH 7.5, 298 K.
In assay [3] the target is T1, β3 transmembrane and cytoplasmic tail polypeptide (β3-TM–CT) in nanodiscs (UniProt O54890 715-787, biotin (biotin-maleimide)).
T1 chain: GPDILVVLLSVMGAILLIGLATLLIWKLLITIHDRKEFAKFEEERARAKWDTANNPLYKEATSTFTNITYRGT
Put plainly: FACS; 10% PIP3 nanodiscs.

The target in assay [4] is T2, α5-TM lacking the cytoplasmic domain (tailless α5-TM) in nanodiscs (UniProt P11688 993-1025, biotin (biotin-maleimide)).
T2 chain: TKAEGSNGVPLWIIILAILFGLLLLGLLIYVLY
The assay can be described thus: FACS; 10% PIP3 nanodiscs. For orientation: A flow cytometer gives signals particle by particle.

Assay [5] deals with T3, β1 transmembrane and cytoplasmic tail polypeptide (β1-TM–CT) in nanodiscs (UniProt P05556 726-798, biotin (biotin-maleimide)).
T3 chain: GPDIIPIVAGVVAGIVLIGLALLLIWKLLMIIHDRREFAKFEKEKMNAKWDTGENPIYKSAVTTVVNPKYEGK
Put plainly: FACS; 10% PIP3 nanodiscs.

The target in assay [6] is T1, β3 transmembrane and cytoplasmic tail …. The assay can be described thus: FACS; 10% PIP2 nanodiscs.
Assay [7] has as its target T2, α5-TM lacking the cytoplasmic domain …. Put plainly: FACS; 10% PIP2 nanodiscs.
For assay [8], the target named is T3, β1 transmembrane and cytoplasmic tail …. The assay can be described thus: FACS; 10% PIP2 nanodiscs.
Assay [9] concerns the target T4, ATTO 488-labelled β3-CT (488–β3-CT) (UniProt O54890 741-787, ATTO 488 at the N terminus).
T4 construct: integrin β3 cytoplasmic tail; source: synthetic peptide (MPIB Core Facility)
T4 peptide (looked up): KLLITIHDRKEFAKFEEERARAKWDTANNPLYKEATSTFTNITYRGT
The assay can be described thus: MST; as a7, with a second unlabelled protein present at near-saturating concentration (named in the quantity or in the printed words); apparent constants (Kd,app*). The settings on record: both partners purified.

TLN1-F3–ΔKIND2^Y13A fusion protein: in [1], the Kd of the kindlin contribution (fit of concentrations up to 5 µM) is 2.9 µM and the Kd of the talin contribution (fit of concentrations above 5 µM) is 16 µM.

Take ΔKIND2^Y13A (domain or fragment): in assay [2], the decrease of the signal intensities of the membrane-proximal α-helix of β1-CT (H758–K770), 1:0.8 against 1:0.2, with TLN1-F3 K402E added together was determined as 10% and the decrease of the signal intensities of the membrane-proximal α-helix of β1-CT (H758–K770), 1:0.8 against 1:0.2, with TLN1-F3 added together worked out at 30%.

On to “KIND2 lacking the flexible loop in F1 and the PH domain (ΔKIND2) (domain or fragment)”, for which the decrease of the signal intensities of the membrane-proximal α-helix of β1-CT (H758–K770), 1:0.8 against 1:0.2, with TLN1-F3 added together in [2] was determined as 50%.

B1: THD1^K402E (domain or fragment)
chain: MVALSLKISIGNVVKTMQFEPSTMVYDACRMIRERIPEALAGPPNDFGLFLSDDDPKKGIWLEAGKALDYYMLRNGDTMEYRKKQRPLKIRMLDGTVKTIMVDDSKTVTDMLMTICARIGITNHDEYSLVRELMEEKKDEGTGTLRKDKTLLRDEKKMEKLKQKLHTDDELNWLDHGRTLREQGVEEHETLLLRRKFFYSDQNVDSRDPVQLNLLYVQARDDILNGSHPVSFDKACEFAGFQCQIQFGPHNEQKHKAGFLDLKDFLPKEYVKQKGERKIFQAHKNCGQMSEIEAKVRYVKLARSLKTYGVSFFLVKEKMKGKNKLVPRLLGITKECVMRVDEKTKEVIQEWSLTNIKRWAASPKSFTLDFGDYQDGYYSVQTTEGEQIAQLIAGYIDIILKEKKS
Take B1: the IC50 (in general, the concentration that inhibits the measured activity by half) in assay [3] worked out at 0.051 µM; in assay [4], 0.211 µM; in [5], 0.054 µM; in assay [6], 0.07 µM; in assay [7], 0.246 µM; in assay [8], 0.131 µM.

B2: talin-1 head domain (THD1) (domain or fragment, UniProt P26039 1-405, looked up)
chain: MVALSLKISIGNVVKTMQFEPSTMVYDACRMIRERIPEALAGPPNDFGLFLSDDDPKKGIWLEAGKALDYYMLRNGDTMEYRKKQRPLKIRMLDGTVKTIMVDDSKTVTDMLMTICARIGITNHDEYSLVRELMEEKKDEGTGTLRKDKTLLRDEKKMEKLKQKLHTDDELNWLDHGRTLREQGVEEHETLLLRRKFFYSDQNVDSRDPVQLNLLYVQARDDILNGSHPVSFDKACEFAGFQCQIQFGPHNEQKHKAGFLDLKDFLPKEYVKQKGERKIFQAHKNCGQMSEIEAKVRYVKLARSLKTYGVSFFLVKEKMKGKNKLVPRLLGITKECVMRVDEKTKEVIQEWSLTNIKRWAASPKSFTLDFGDYQDGYYSVQTTEGEQIAQLIAGYIDIILKKKKS
notes: talin-1 (TLN1) head domain (F0-F3), residues 1-405; In FC-RDA a copy labelled with ATTO 565 (565–THD1) was the reporter; also called 565–THD1; source: E. coli (DE3) Rosetta 2, purified (IMAC, SEC); not shown: His10, N-terminal, cleaved; SUMO, N-terminal, cleaved
For the molecule B2, in [9], the “apparent Kd (Kd,app*) in the presence of KIND2” value came out at 102 µM and the “apparent Kd (Kd,app*) in the presence of KIND2 Y13A” value came out at 218 µM.

B3: THD1^K402E (domain or fragment, UniProt P26039 1-405, looked up)
chain: MVALSLKISIGNVVKTMQFEPSTMVYDACRMIRERIPEALAGPPNDFGLFLSDDDPKKGIWLEAGKALDYYMLRNGDTMEYRKKQRPLKIRMLDGTVKTIMVDDSKTVTDMLMTICARIGITNHDEYSLVRELMEEKKDEGTGTLRKDKTLLRDEKKMEKLKQKLHTDDELNWLDHGRTLREQGVEEHETLLLRRKFFYSDQNVDSRDPVQLNLLYVQARDDILNGSHPVSFDKACEFAGFQCQIQFGPHNEQKHKAGFLDLKDFLPKEYVKQKGERKIFQAHKNCGQMSEIEAKVRYVKLARSLKTYGVSFFLVKEKMKGKNKLVPRLLGITKECVMRVDEKTKEVIQEWSLTNIKRWAASPKSFTLDFGDYQDGYYSVQTTEGEQIAQLIAGYIDIILKEKKS
notes: talin-1 (TLN1) head domain, residues 1-405, with K402E; In FC-RDA a copy labelled with ATTO 565 was the reporter; also called 565–THD1^K402E; source: E. coli (DE3) Rosetta 2, purified (IMAC, SEC); not shown: His10, N-terminal, cleaved; SUMO, N-terminal, cleaved
Take B3: the “apparent Kd (Kd,app*) in the presence of KIND2” value in [9] came to 76 µM.

B4: KIND2^Y13A (natural protein)
chain: MALDGIRMPDGCAADGTWELSVHVTDLNRDVTLRVTGEVHIGGVMLKLVEKLDVKKDWSDHALWWEKKRTWLLKTHWTLDKCGIQADAKLQFTPQHKLLRLQLPNMKYVKVKVNFSDRVFKAVSDICKTFNIRHPEELSLLKKPRDPTKKKKKKLDDQSEDEALELEGPLIMPGSGSIYSSPGLYSKTMTPTYDAHDGSPLSPTSAWFGDSALSEGNPGILAVSQPVTSPEILAKMFKPQALLDKAKTNQGWLDSSRSLMEQDVKENEALLLRFKYYSFFDLNPKYDAIRINQLYEQAKWALLLEEIECTEEEMMMFAALQYHINKLSIMTSENHLNNSDKEVDEVDAALSDLEITLEGGKTSTILGDITSIPELADYIKVFKPKKLTLKGYKQYWCTFKDTSISCYKSREESSGTPAHQLNLRGCEVTPDVNISGQKFNIKLLIPVAEGMNEIWLRCDNEKQYAHWMAACRLASKGKTMADSSYNLEVQNILSFLKMQHLNPDPQLIPDQITTDVNPECLVSPRYLKKYKSKQITARILEAHQNVAQMSLIEAKMRFIQAWQSLPEFGITHFIARFQGGKREELIGIAYNRLIRMDASTGDAIKTWRFSNMKQWNVNWEIKMVTVEFADEVRLSFICTEVDCKVVHEFIGGYIFLSTRAKDQNESLDEEMFYKLTSGWV
On to B4, for which the IC50 in assay [3] worked out at 0.173 µM; in [4], 0.128 µM; in assay [6] it was 0.219 µM; in assay [7], 0.162 µM; in [8] it was 0.098 µM.

B5: kindlin-2 (KIND2) (natural protein, UniProt Q8CIB5 1-680, looked up)
chain: MALDGIRMPDGCYADGTWELSVHVTDLNRDVTLRVTGEVHIGGVMLKLVEKLDVKKDWSDHALWWEKKRTWLLKTHWTLDKCGIQADAKLQFTPQHKLLRLQLPNMKYVKVKVNFSDRVFKAVSDICKTFNIRHPEELSLLKKPRDPTKKKKKKLDDQSEDEALELEGPLIMPGSGSIYSSPGLYSKTMTPTYDAHDGSPLSPTSAWFGDSALSEGNPGILAVSQPVTSPEILAKMFKPQALLDKAKTNQGWLDSSRSLMEQDVKENEALLLRFKYYSFFDLNPKYDAIRINQLYEQAKWALLLEEIECTEEEMMMFAALQYHINKLSIMTSENHLNNSDKEVDEVDAALSDLEITLEGGKTSTILGDITSIPELADYIKVFKPKKLTLKGYKQYWCTFKDTSISCYKSREESSGTPAHQLNLRGCEVTPDVNISGQKFNIKLLIPVAEGMNEIWLRCDNEKQYAHWMAACRLASKGKTMADSSYNLEVQNILSFLKMQHLNPDPQLIPDQITTDVNPECLVSPRYLKKYKSKQITARILEAHQNVAQMSLIEAKMRFIQAWQSLPEFGITHFIARFQGGKREELIGIAYNRLIRMDASTGDAIKTWRFSNMKQWNVNWEIKMVTVEFADEVRLSFICTEVDCKVVHEFIGGYIFLSTRAKDQNESLDEEMFYKLTSGWV
notes: kindlin-2 (KIND2) without the deletions of ΔKIND2; In FC-RDA a copy labelled with Alexa 647 (647–KIND2) was the reporter; also called 647–KIND2; source: E. coli Rosetta, purified (IMAC, SEC); not shown: His10, N-terminal, cleaved; SUMO, N-terminal, cleaved
As to B5, in [9], the “apparent Kd (Kd,app*) in the presence of THD1” value was determined as 54 µM, the “apparent Kd (Kd,app*) in the presence of THD1 K402E” value was 16 µM, the “apparent Kd (Kd,app*) in the presence of THD2” value stood at 27 µM and the “apparent Kd (Kd,app*) in the presence of TLN1-F3” value came to 120 µM. Also, the “apparent Kd (Kd,app*) in the presence of TLN2-F3” value in assay [9] was found to be 47 µM.

B6: KIND2^Y13A (natural protein, UniProt Q8CIB5 1-680, looked up)
chain: MALDGIRMPDGCAADGTWELSVHVTDLNRDVTLRVTGEVHIGGVMLKLVEKLDVKKDWSDHALWWEKKRTWLLKTHWTLDKCGIQADAKLQFTPQHKLLRLQLPNMKYVKVKVNFSDRVFKAVSDICKTFNIRHPEELSLLKKPRDPTKKKKKKLDDQSEDEALELEGPLIMPGSGSIYSSPGLYSKTMTPTYDAHDGSPLSPTSAWFGDSALSEGNPGILAVSQPVTSPEILAKMFKPQALLDKAKTNQGWLDSSRSLMEQDVKENEALLLRFKYYSFFDLNPKYDAIRINQLYEQAKWALLLEEIECTEEEMMMFAALQYHINKLSIMTSENHLNNSDKEVDEVDAALSDLEITLEGGKTSTILGDITSIPELADYIKVFKPKKLTLKGYKQYWCTFKDTSISCYKSREESSGTPAHQLNLRGCEVTPDVNISGQKFNIKLLIPVAEGMNEIWLRCDNEKQYAHWMAACRLASKGKTMADSSYNLEVQNILSFLKMQHLNPDPQLIPDQITTDVNPECLVSPRYLKKYKSKQITARILEAHQNVAQMSLIEAKMRFIQAWQSLPEFGITHFIARFQGGKREELIGIAYNRLIRMDASTGDAIKTWRFSNMKQWNVNWEIKMVTVEFADEVRLSFICTEVDCKVVHEFIGGYIFLSTRAKDQNESLDEEMFYKLTSGWV
notes: kindlin-2 (KIND2) with Y13A; In FC-RDA a copy labelled with Alexa 647 was the reporter; also called 647–KIND2^Y13A; source: E. coli Rosetta, purified (IMAC, SEC); not shown: His10, N-terminal, cleaved; SUMO, N-terminal, cleaved
Turning to B6, the “apparent Kd (Kd,app*) in the presence of THD1” value in assay [9] was 21 µM.

The values are drawn from PMC10716038, “Talin and kindlin use integrin tail allostery and direct binding to activate integrins” (Nature Structural & Molecular Biology, 2023).
